# Experimental data: article PMC11210774, “Critical domains for NACC2-NTRK2 fusion protein activation” (PLOS ONE, 2024)
# B1: Nucleus Accumbens-associated protein 2 (NACC2), wild type (natural protein, human, UniProt Q96BF6 1-587, looked up)
# chain: MSQMLHIEIPNFGNTVLGCLNEQRLLGLYCDVSIVVKGQAFKAHRAVLAASSLYFRDLFSGNSKSAFELPGSVPPACFQQILSFCYTGRLTMTASEQLVVMYTAGFLQIQHIVERGTDLMFKVSSPHCDSQTAVIEDAGSEPQSPCNQLQPAAAAAAPYVVSPSVPIPLLTRVKHEAMELPPAGPGLAPKRPLETGPRDGVAVAAGAAVAAGTAPLKLPRVSYYGVPSLATLIPGIQQMPYPQGERTSPGASSLPTTDSPTSYHNEEDEEDDEAYDTMVEEQYGQMYIKASGSYAVQEKPEPVPLESRSCVLIRRDLVALPASLISQIGYRCHPKLYSEGDPGEKLELVAGSGVYITRGQLMNCHLCAGVKHKVLLRRLLATFFDRNTLANSCGTGIRSSTSDPSRKPLDSRVLNAVKLYCQNFAPSFKESEMNVIAADMCTNARRVRKRWLPKIKSMLPEGVEMYRTVMGSAAASVPLDPEFPPAAAQVFEQRIYAERRGDAATIVALRTDAVNVDLSAAANPAFDAGEEVDGAGSVIQEVAAPEPLPADGQSPPQPFEQGGGGPSRPQTPAAAARRPEGTYAGTL
# notes: NACC2, human, wild type; gene bought from Origene and subcloned into pCDNA3 by EcoRI and XbaI; Expressed alone (multimerization assay) or together with the fusion proteins (co-IP); also called wild-type NACC2; native NACC2; source: HEK293T, transfected (pCDNA3, CaCl2), in lysate (E1A buffer)
# Legend:
# [1] = molecular target: NACC2-NTRK2(ex4:ex13) fusion protein (UniProt Q96BF6); assay: non-reducing SDS-PAGE and immunoblot of multimers; HEK293T lysates in E1A buffer (250 mM NaCl, 50 mM HEPES, 5 mM EDTA, 0.1% NP-40); non-reducing sample buffer (4% SDS, 10 mM NaPO4 pH 7.0); immunoblot for NACC2 or NTRK2; multimer/monomer band ratio by ImageJ, three replicates
# NACC2(Y86A)-NTRK2 [2] = molecular target: NACC2(Y86A)-NTRK2 (UniProt Q96BF6); assay: as above
# NACC2(D31N/R45Q)-NTRK2 [3] = molecular target: NACC2(D31N/R45Q)-NTRK2 (UniProt Q96BF6); assay: as above
# [4] = molecular target: the molecule itself; assay: as above
# [5] = molecular target: NACC2-NTRK2(ex4:ex13) fusion protein (UniProt Q96BF6); assay: co-IP; fusion protein co-expressed with NACC2 in HEK293T; E1A buffer; immunoprecipitation with antibodies against NTRK2 and Protein A-Sepharose at 4°C, immunoblot for NACC2; ratio of NACC2 to the co-immunoprecipitated fusion by ImageJ
# NACC2(Y86A)-NTRK2 [6] = molecular target: NACC2(Y86A)-NTRK2 (UniProt Q96BF6); assay: as above
# NACC2(D31N/R45Q)-NTRK2 [7] = molecular target: NACC2(D31N/R45Q)-NTRK2 (UniProt Q96BF6); assay: as above
molecule,measurement,setting,value
NACC2-NTRK2(ex4:ex13) fusion protein (from UniProt Q96BF6 1-418; Q16620 397-822),ratio of the multimer band to the monomer band,[1],44%
NACC2(Y86A)-NTRK2 (from UniProt Q96BF6 1-418; Q16620 397-822),ratio of the multimer band to the monomer band,NACC2(Y86A)-NTRK2 [2],12%
NACC2(D31N/R45Q)-NTRK2 (from UniProt Q96BF6 1-418; Q16620 397-822),ratio of the multimer band to the monomer band,NACC2(D31N/R45Q)-NTRK2 [3],18%
B1,ratio of the multimer band to the monomer band,[4],7%
same,ratio of NACC2 to the NACC2-NTRK2 fusion with which it was co-immunoprecipitated,[5],72%
same,ratio of NACC2 to the NACC2-NTRK2 fusion with which it was co-immunoprecipitated,NACC2(Y86A)-NTRK2 [6],15%
same,ratio of NACC2 to the NACC2-NTRK2 fusion with which it was co-immunoprecipitated,NACC2(D31N/R45Q)-NTRK2 [7],45%
